The source of these data is patent US20180291101A1 (published 2018).

Residue numbers refer to the chain shown, from its start.

The target in assay [1] is monomeric His-tagged human FcRn (hFcRn) (JTA) (human) (UniProt P55899). The experiment in a line: SPR, IgG amine-coupled, hFcRn (JTA) injected, 1:1 fit, pH 6.0. For orientation: In SPR one partner is held on a chip, and binding of the other changes the refractive index at the surface.
The target is the same in assay [2]. In words: SPR, IgG amine-coupled, hFcRn (JTA) injected, pH 6.0; first value of the cell (kinetic fit).
The target is the same in assay [3]. The experiment in a line: SPR, IgG amine-coupled, hFcRn (JTA) injected, pH 6.0; second value of the cell (steady-state affinity model).
The target of assay [4] is hFcRn in hFcRn TG mice (human FCGRT transgene) (human, UniProt P55899 24-365). The experiment in a line: cell-based or functional assay.
The target in assay [5] is T1, recombinant human FcRn (Sino Biological Inc. Cat. No. CT009-H08H) (human, UniProt P55899 24-297; P61769 21-119).
T1 construct: Bought protein; also called hFcRn (SINO); immobilized FcRn
The experiment in a line: competition ELISA vs biotinylated parent murine antibody, pH 6.0.

The target in assay [6] is T1, recombinant human FcRn (Sino Biological …). In words: competition ELISA vs biotinylated human serum IgG, pH 6.0.
The target is the same in assay [7]. In words: competition ELISA vs biotinylated parent murine antibody, pH 7.4. (In general: ELISA stands for enzyme-linked immunosorbent assay.)

Chain of monomeric His-tagged human FcRn (hFcRn) (JTA) (human) (P55899 24-297 limits assumed, chain 1 of 2): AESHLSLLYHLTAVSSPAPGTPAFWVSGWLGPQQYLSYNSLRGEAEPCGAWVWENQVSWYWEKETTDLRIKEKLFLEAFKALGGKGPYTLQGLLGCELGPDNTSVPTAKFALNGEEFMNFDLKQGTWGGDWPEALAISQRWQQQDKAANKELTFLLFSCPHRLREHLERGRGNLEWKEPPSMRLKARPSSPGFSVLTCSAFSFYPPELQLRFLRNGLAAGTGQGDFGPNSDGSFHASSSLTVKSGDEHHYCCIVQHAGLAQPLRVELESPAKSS
Chain of monomeric His-tagged human FcRn (hFcRn) (JTA) (human) (P61769 21-119 limits assumed, chain 2 of 2, further chain): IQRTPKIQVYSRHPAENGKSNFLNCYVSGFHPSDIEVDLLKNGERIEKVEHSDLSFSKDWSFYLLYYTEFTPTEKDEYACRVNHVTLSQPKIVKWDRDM
T1 sequence (P55899 24-297 limits assumed, chain 1 of 2): as the sequence (P55899 24-297 limits assumed, chain 1 of 2) above
T1 sequence (P61769 21-119 limits assumed, chain 2 of 2): as the sequence (P61769 21-119 limits assumed, chain 2 of 2, further chain) above
Chain of hFcRn in hFcRn TG mice (human FCGRT transgene) (P55899 24-365): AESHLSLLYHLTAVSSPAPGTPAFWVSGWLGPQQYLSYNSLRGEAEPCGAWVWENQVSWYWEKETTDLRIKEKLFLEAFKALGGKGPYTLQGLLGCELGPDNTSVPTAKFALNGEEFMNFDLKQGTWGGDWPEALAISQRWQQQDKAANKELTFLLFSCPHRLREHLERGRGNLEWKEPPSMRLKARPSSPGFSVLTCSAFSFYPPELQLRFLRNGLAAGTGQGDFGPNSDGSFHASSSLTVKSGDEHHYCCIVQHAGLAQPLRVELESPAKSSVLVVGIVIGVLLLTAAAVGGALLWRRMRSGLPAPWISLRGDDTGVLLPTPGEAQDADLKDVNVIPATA

Consider human IgG1 (hIgG1) (antibody), for which the koff in assay [1] was 0.0824 s⁻¹. In assay [1], the kon came to 108000 M⁻¹ s⁻¹. The Kd worked out at 763 nM in assay [2] and 1250 nM in assay [3].
Consider human IgG4 (hIgG4) (antibody), for which the Kd was determined as 1010 nM in assay [2] and 970 nM in assay [3].

B1: H3Vκ2 (H3VH1_Vκ2) IgG4 (antibody, V domains shown)
VH: QVQLVQSGAELKKPGASVKLSCKASGYTFTSYGISWVKQATGQGLEWIGEIYPRSGNTYYNEKFKGRATLTADKSTSTAYMELRSLRSEDSAVYFCARSTTVRPPGIWGTGTTVTVSS
VL: DIQMTQSPSSLSASVGDRVTITCKASDHINNWLAWYQQKPGQAPRLLISGATSLETGVPSRFSGSGTGKDYTLTISSLQPEDFATYYCQQYWSTPYTFGGGTKVEIK
Turning to B1, the “plasma concentration of HuLys11 (human IgG1) in hFcRn TG mice after 20 mg/kg” value in assay [4] stood at 3 fold reduction.

B2: VH1_A8/Vκ1 IgG4 (antibody, V domains shown)
VH: B1 VH with R87K, R103S, G106A, I107H
VL: B1 VL with S10Y, P80T
notes: IgG4
In the case of B2, the “average relative IC50 (normalized to chimeric parent murine antibody)” value in assay [5] worked out at 0.87 ratio; in assay [7] it was 0.89 ratio. For the same molecule, the “average relative IC50 (normalized to parent murine antibody)” value in assay [6] worked out at 0.53 ratio.

The koff is the first-order rate constant of dissociation. Read a high koff as fast dissociation. As usually defined, the kon is the second-order rate constant of association. A high value points to faster complex formation. For orientation: Kd means the constant that tells how readily two partners part at equilibrium.
